Consider one molecule from paper PMC2783222 (2010).

In one assay the target is T1, ADAM22 (Homo sapiens, UniProt Q9P0K1).
T1 chain: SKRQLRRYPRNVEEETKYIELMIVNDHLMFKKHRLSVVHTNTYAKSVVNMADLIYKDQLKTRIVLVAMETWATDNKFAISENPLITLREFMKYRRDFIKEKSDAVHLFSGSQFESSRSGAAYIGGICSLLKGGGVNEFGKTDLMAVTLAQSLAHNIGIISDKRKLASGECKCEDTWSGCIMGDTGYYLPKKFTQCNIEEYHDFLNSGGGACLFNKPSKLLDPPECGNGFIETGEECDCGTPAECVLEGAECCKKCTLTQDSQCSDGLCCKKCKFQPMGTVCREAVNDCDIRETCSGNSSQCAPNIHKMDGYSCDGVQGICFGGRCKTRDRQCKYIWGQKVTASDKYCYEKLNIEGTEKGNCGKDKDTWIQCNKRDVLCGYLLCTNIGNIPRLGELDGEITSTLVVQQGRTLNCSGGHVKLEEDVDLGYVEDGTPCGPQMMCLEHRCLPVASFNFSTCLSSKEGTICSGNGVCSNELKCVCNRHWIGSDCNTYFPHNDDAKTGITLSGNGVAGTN
Description: LGI1-AP fusion binding to transfected COS-7 cells.

Assay [1] concerns the target T2, ADAM23 (Homo sapiens, UniProt O75077).
T2 chain: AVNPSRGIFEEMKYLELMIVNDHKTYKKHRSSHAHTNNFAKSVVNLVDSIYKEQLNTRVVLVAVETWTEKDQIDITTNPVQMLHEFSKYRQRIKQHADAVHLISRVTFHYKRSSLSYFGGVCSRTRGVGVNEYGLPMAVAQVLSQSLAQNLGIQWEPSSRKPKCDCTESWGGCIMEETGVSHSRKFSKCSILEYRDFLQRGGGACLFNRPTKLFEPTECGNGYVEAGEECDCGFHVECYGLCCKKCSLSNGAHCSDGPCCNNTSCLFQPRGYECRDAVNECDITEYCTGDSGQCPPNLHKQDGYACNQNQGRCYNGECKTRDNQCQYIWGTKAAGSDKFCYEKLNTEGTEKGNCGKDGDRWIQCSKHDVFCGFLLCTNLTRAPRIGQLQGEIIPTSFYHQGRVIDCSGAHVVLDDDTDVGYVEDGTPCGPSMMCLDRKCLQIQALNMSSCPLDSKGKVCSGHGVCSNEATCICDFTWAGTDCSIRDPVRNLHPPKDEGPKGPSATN
Description: LGI1-AP fusion binding to transfected COS-7 cells.

The target of another assay is T3, ADAM11 (Homo sapiens, UniProt O75078).
T3 chain: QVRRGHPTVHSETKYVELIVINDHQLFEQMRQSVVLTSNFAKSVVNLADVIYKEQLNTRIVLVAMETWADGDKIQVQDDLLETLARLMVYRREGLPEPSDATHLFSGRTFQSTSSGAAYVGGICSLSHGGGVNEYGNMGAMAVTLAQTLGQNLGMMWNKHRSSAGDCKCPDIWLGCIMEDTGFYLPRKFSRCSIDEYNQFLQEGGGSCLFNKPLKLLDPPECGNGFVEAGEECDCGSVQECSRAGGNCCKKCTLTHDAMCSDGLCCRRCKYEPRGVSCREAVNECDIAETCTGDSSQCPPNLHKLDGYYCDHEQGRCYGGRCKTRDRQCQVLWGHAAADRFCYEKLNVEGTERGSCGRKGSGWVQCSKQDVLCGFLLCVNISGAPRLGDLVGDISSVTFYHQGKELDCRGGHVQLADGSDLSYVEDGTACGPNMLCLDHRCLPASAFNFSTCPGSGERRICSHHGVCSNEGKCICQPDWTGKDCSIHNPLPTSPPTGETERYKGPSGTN
Description: LGI1-AP fusion binding to transfected COS-7 cells.

Assay [2] addresses T2, ADAM23. Description: LGI1-AP fusion binding to transfected COS-7 cells, Scatchard.

B1: LGI1 (protein)
chain: KKPAKPKCPAVCTCTKDNALCENARSIPRTVPPDVISLSFVRSGFTEISEGSFLFTPSLQLLLFTSNSFDVISDDAFIGLPHLEYLFIENNNIKSISRHTFRGLKSLIHLSLANNNLQTLPKDIFKGLDSLTNVDLRGNSFNCDCKLKWLVEWLGHTNATVEDIYCEGPPEYKKRKINSLSSKDFDCIITEFAKSQDLPYQSLSIDTFSYLNDEYVVIAQPFTGKCIFLEWDHVEKTFRNYDNITGTSTVVCKPIVIETQLYVIVAQLFGGSHIYKRDSFANKFIKIQDIEILKIRKPNDIETFKIENNWYFVVADSSKAGFTTIYKWNGNGFYSHQSLHAWYRDTDVEYLEIVRTPQTLRTPHLILSSSSQRPVIYQWNKATQLFTNQTDIPNMEDVYAVKHFSVKGDVYICLTRFIGDSKVMKWGGSSFQDIQRMPSRGSMVFQPLQINNYQYAILGSDYSFTQVYNWDAEKAKFVKFQELNVQAPRSFTHVSINKRNFLFASSFKGNTQIYKHVIVDLSA
In the case of B1, the Kd with ADAM22 worked out at 15 nM; with ADAM23 [1], 15 nM; in the assay with ADAM11, 15 nM; with ADAM23 [2], 10 nM.

The Kd is the free concentration of one partner at which half of the binding sites on the other are occupied at equilibrium, for simple one-to-one binding. A lower Kd goes with a tighter complex.
